Results as given in PMC8266594 (Nucleic Acids Research, 2021).
Where a chain is given by its changes, count along the chain named. Names and notes keep the numbering of the source.

B1: RnlAΔ1–91 (TBP2-HEPN) truncated RnlA, N-terminally His-tagged (domain or fragment, Escherichia coli, UniProt P52129 92-357, looked up)
chain: INPAEFEQVNMVLQGFVETSVLPVLELSADESHIEFREHSRNAHTVVWKIISTSYQDELTVSLHITTGKLQIQGRPLSCYRVFTFNLAALLDLQGLEKVLIRQEDGKANIVQQEVARTYLQTVMADAYPHLHVTAEKLLVSGLCVKLAAPDLPDYCMLLYPELRTIEGVLKSKMSGLGMPVQQPAGFGTYFDKPAAHYILKPQFAATLRPEQINIISTAYTFFNVERHSLFHMETVVDASRMISDMARLMGKATRAWGIIKDLYIV
B2: His-RnlA (wild-type RnlA toxin, N-terminally His-tagged) (enzyme)
chain: MTIRSYKNLNLVRANIETESRQFIENKNYSIQSIGPMPGSRAGLRVVFTRPGVNLATVDIFYNGDGSTTIQYLTGANRSLGQELADHLFETINPAEFEQVNMVLQGFVETSVLPVLELSADESHIEFREHSRNAHTVVWKIISTSYQDELTVSLHITTGKLQIQGRPLSCYRVFTFNLAALLDLQGLEKVLIRQEDGKANIVQQEVARTYLQTVMADAYPHLHVTAEKLLVSGLCVKLAAPDLPDYCMLLYPELRTIEGVLKSKMSGLGMPVQQPAGFGTYFDKPAAHYILKPQFAATLRPEQINIISTAYTFFNVERHSLFHMETVVDASRMISDMARLMGKATRAWGIIKDLYIV
B3: D245R RnlA, N-terminally His-tagged (enzyme, Escherichia coli, UniProt P52129 1-357, looked up)
chain: B2 chain with D245R
B4: R255A RnlA, N-terminally His-tagged (enzyme, Escherichia coli, UniProt P52129 1-357, looked up)
chain: B2 chain with R255A

Target: the molecule itself
Experiment: SAXS

Which “stoichiometry N” value does the source give for B1 here?
The value was 2.

Which “stoichiometry N” value does the source give for B2 here?
The value was 2.

With B3 as the protein, how does the “stoichiometry N” value read?
The value was 2.

For B4, which “stoichiometry N” value is on record?
The value was 2.
